Measurements as given in patent US20070041972A1 (Alexion, published 2007).

Tests used:
[1] = target: T1, human high affinity receptor for IgG (FcγRI) on U937 cells (human, UniProt P12314 16-374); test: flow cytometry competition with 3.0 ng/mL biotinylated hIgG on U937 cells
T1 construct: whole, on cells; also called FcγRI receptor
Experimental: The antibody produced in accordance with this Example was tested to evaluate binding to the human high affinity receptor for IgG (FcγRI).

[2] = target: T2, human low affinity receptor for IgG (FcγRII) on K562 cells (human, UniProt P12318 34-317); test: flow cytometry on K562 cells, antibody complexed with FITC-rabbit Fab'2 anti-human Fab'2
T2 construct: whole, on cells
T2 sequence (looked up): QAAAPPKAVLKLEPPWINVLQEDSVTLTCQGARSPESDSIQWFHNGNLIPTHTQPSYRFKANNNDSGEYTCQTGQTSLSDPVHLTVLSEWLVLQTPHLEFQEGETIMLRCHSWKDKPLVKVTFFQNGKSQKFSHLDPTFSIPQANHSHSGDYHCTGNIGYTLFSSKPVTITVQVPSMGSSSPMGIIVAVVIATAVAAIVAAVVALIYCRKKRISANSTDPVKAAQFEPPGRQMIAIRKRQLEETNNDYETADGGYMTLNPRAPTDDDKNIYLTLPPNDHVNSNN
Text: Binding of the FITC—rabbit Fab′2 anti-human Fab′2 antibodies alone is also indicated.

B1: chimeric OKT3 hG2/G4 recombinant antibody (murine OKT3 variable regions, engineered human IgG2/IgG4 heavy chain constant region, human kappa constant region) (antibody)
heavy: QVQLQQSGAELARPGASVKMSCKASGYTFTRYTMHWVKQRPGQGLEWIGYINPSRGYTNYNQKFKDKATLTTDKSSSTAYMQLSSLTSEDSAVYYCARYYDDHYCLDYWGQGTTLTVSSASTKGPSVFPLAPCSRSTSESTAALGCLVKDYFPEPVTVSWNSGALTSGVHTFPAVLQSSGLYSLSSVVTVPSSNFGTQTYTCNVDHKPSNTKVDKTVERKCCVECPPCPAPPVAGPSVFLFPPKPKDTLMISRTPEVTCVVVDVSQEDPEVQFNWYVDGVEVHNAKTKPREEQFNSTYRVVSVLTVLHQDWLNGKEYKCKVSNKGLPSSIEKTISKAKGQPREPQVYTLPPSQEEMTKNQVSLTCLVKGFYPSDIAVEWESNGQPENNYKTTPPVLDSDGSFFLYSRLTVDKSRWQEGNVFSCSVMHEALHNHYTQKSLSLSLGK
light: QIVLTQSPAIMSASPGEKVTMTCSASSSVSYMNWYQQKSGTSPKRWIYDTSKLASGVPAHFRGSGSGTSYSLTISGMEAEDAATYYCQQWSSNPFTFGSGTKLEIKRTVAAPSVFIFPPSDEQLKSGTASVVCLLNNFYPREAKVQWKVDNALQSGNSQESVTEQDSKDSTYSLSSTLTLSKADYEKHKVYACEVTHQGLSSPVTKSFNRGEC
notes: Made in two expression systems; also called chimeric antibody containing an engineered IgG2/IgG4 human constant region
[1]
  binding result: no binding
[2]
  binding result: no binding
